The values below come from patent US20240117035A1.

The term IC50 denotes the concentration at which inhibition is half-maximal. Low values mean inhibition by little substance, high ones a need for much substance.

For assay [1], the target named is human CLDN18.2 on cells (human) (UniProt P56856). In words: flow cytometry on hCLDN18.2-expressing HEK293 cells. Background: Flow cytometry measures light scatter and fluorescence of single cells or particles in a stream.
For assay [2] the target is unchanged. As to the kind of experiment: flow cytometry on SNU601 cells.

B1: m-anti-human CLDN18.2-13 monoclonal antibody (antibody, mouse IgG2a, kappa, V domains shown)
VH: QLQLQQSGTELVRPGSSVKISCKASGYAFSNYWMNWVKQRPGQGLEWIGQIYPGNGDTKYNGNFKGKATLTADKSSSTAYMQLSSLTSEDSADYFCARYYRGNCFDYWGQGTTLTVSS
VL: DIVLTQSPSSLTVTAGEKVTMSCKSSQSLLNSGNQKNYLTWYQQKPGQPPKLLIYWASTRDSGVPARFTGSGSGTDFTLTINSVQAEDLAVYYCQNAYTYPLTFGAGTKLEIKR
As for B1, the IC50 was 0.701 µg/mL in assay [1] and 0.811 µg/mL in assay [2].
